Source: IntAct's records for PubMed 29892012

B1: Serine hydroxymethyltransferase, mitochondrial (Homo sapiens), P34897 (parent)
chain: MLYFSLFWAARPLQRCGQLVRMAIRAQHSNAAQTQTGEANRGWTGQESLSDSDPEMWELLQREKDRQCRGLELIASENFCSRAALEALGSCLNNKYSEGYPGKRYYGGAEVVDEIELLCQRRALEAFDLDPAQWGVNVQPYSGSPANLAVYTALLQPHDRIMGLDLPDGGHLTHGYMSDVKRISATSIFFESMPYKLNPKTGLIDYNQLALTARLFRPRLIIAGTSAYARLIDYARMREVCDEVKAHLLADMAHISGLVAAKVIPSPFKHADIVTTTTHKTLRGARSGLIFYRKGVKAVDPKTGREIPYTFEDRINFAVFPSLQGGPHNHAIAAVAVALKQACTPMFREYSLQVLKNARAMADALLERGYSLVSGGTDNHLVLVDLRPKGLDGARAERVLELVSITANKNTCPGDRSAITPGGLRLGAPALTSRQFREDDFRRVVDFIDEGVNIGLEVKSKTAKLQDFKSFLLKDSETSQRLANLRQRVEQFARAFPMPGFDEH
partner: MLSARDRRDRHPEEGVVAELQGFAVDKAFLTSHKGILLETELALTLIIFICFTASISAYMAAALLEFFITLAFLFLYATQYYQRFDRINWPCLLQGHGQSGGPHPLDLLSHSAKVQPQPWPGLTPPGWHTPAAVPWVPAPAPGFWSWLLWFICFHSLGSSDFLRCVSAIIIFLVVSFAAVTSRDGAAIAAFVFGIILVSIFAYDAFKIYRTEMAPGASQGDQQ
B2: Protein VAC14 homolog (Homo sapiens), Q08AM6 (parent)
chain: MNPEKDFAPLTPNIVRALNDKLYEKRKVAALEIEKLVREFVAQNNTVQIKHVIQTLSQEFALSQHPHSRKGGLIGLAACSIALGKDSGLYLKELIEPVLTCFNDADSRLRYYACEALYNIVKVARGAVLPHFNVLFDGLSKLAADPDPNVKSGSELLDRLLKDIVTESNKFDLVSFIPLLRERIYSNNQYARQFIISWILVLESVPDINLLDYLPEILDGLFQILGDNGKEIRKMCEVVLGEFLKEIKKNPSSVKFAEMANILVIHCQTTDDLIQLTAMCWMREFIQLAGRVMLPYSSGILTAVLPCLAYDDRKKSIKEVANVCNQSLMKLVTPEDDELDELRPGQRQAEPTPDDALPKQEGTASGGPDGSCDSSFSSGISVFTAASTERAPVTLHLDGIVQVLNCHLSDTAIGMMTRIAVLKWLYHLYIKTPRKMFRHTDSLFPILLQTLSDESDEVILKDLEVLAEIASSPAGQTDDPGPLDGPDLQASHSELQVPTPGRAGLLNTSGTKGLECSPSTPTMNSYFYKFMINLLKRFSSERKLLEVRGPFIIRQLCLLLNAENIFHSMADILLREEDLKFASTMVHALNTILLTSTELFQLRNQLKDLKTLESQNLFCCLYRSWCHNPVTTVSLCFLTQNYRHAYDLIQKFGDLEVTVDFLAEVDKLVQLIECPIFTYLRLQLLDVKNNPYLIKALYGLLMLLPQSSAFQLLSHRLQCVPNPELLQTEDSLKAAPKSQKADSPSIDYAELLQHFEKVQNKHLEVRHQRSGRGDHLDRRVVL
partner: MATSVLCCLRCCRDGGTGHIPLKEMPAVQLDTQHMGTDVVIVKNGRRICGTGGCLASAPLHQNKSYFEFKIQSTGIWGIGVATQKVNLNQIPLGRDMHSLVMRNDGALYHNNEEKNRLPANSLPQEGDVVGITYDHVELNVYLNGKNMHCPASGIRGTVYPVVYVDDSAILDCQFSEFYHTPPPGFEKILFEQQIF
B3: Atos homolog protein B (Homo sapiens), Q7L5A3 (parent)
chain: MRHVQAEPSPSSEPEAGPSQPPVRQGALQGGLLMGYSPAGGATSPGVYQVSIFSPPAGTSEPHRALKRQAPSTEGPRELKRGPGLGAREGLPPEEPSTVGLLGPEGPGLGLGVASQHFSHRGLCVVEQRSSVTSSWTSGAWSPPCPPSNASCNTLHTRDWASPDPGGQGSLGESPGPAPPGQLHTLDTDLHSLAQIGGKSPVAGVGNGGSLWPRESPGTANGHSPEHTPPGPGPPGPCPTKRRLLPAGEAPDVSSEEEGPAPRRRRGSLGHPTAANSSDAKATPFWSHLLPGPKEPVLDPTDCGPMGRRLKGARRLKLSPLRSLRKGPGLLSPPSASPVPTPAVSRTLLGNFEESLLRGRFAPSGHIEGFTAEIGASGSYCPQHVTLPVTVTFFDVSEQNAPAPFLGIVDLNPLGRKGYSVPKVGTVQVTLFNPNQTVVKMFLVTFDFSDMPAAHMTFLRHRLFLVPVGEEGNANPTHRLLCYLLHLRFRSSRSGRLSLHGDIRLLFSRRSLELDTGLPYELQAVTEAPHNPRYSPLP
partner: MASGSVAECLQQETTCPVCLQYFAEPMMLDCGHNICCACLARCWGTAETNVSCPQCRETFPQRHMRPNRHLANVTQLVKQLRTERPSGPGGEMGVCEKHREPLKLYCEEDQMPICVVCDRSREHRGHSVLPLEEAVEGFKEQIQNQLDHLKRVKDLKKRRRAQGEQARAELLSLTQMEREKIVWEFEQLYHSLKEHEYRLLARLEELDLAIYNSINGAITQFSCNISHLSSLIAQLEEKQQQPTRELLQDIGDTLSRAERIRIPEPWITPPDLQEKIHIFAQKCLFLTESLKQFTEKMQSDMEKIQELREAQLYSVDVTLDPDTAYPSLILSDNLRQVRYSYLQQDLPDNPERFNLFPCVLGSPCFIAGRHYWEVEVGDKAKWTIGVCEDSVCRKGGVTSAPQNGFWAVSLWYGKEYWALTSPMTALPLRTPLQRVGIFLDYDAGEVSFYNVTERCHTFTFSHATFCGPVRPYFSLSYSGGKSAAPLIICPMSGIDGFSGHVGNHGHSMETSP
B4: Protein VAC14 homolog (Homo sapiens), Q08AM6 (parent)
chain: B2 chain
partner: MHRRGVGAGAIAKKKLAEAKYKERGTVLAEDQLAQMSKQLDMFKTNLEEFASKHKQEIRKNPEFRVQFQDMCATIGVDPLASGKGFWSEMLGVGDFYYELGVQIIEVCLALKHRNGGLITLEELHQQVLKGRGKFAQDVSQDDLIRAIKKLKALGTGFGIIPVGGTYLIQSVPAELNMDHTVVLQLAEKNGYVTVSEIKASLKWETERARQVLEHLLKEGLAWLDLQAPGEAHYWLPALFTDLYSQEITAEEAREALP
B5: Ligand of Numb protein X 2 (Homo sapiens), Q8N448 (parent)
chain: MGTTSDEMVSVEQTSSSSLNPLCFECGQQHWTRENHLYNYQNEVDDDLVCHICLQPLLQPLDTPCGHTFCYKCLRNFLQEKDFCPLDRKRLHFKLCKKSSILVHKLLDKLLVLCPFSSVCKDVMQRCDLEAHLKNRCPGASHRRVALERRKTSRTQAEIENENGPTLLDPAGTLSPEADCLGTGAVPVERHLTSASLSTWSEEPGLDNPAFEESAGADTTQQPLSLPEGEITTIEIHRSNPYIQLGISIVGGNETPLINIVIQEVYRDGVIARDGRLLAGDQILQVNNYNISNVSHNYARAVLSQPCNTLHLTVLRERRFGNRAHNHSDSNSPREEIFQVALHKRDSGEQLGIKLVRRTDEPGVFILDLLEGGLAAQDGRLSSNDRVLAINGHDLKYGTPELAAQIIQASGERVNLTIARPGKPQPGNTIREAGNHSSSSQHHTPPPYYSRPSSHKDLTQCVTCQEKHITVKKEPHESLGMTVAGGRGSKSGELPIFVTSVPPHGCLARDGRIKRGDVLLNINGIDLTNLSHSEAVAMLKASAASPAVALKALEVQIVEEATQNAEEQPSTFSENEYDASWSPSWVMWLGLPSTLHSCHDIVLRRSYLGSWGFSIVGGYEENHTNQPFFIKTIVLGTPAYYDGRLKCGDMIVAVNGLSTVGMSHSALVPMLKEQRNKVTLTVICWPGSLV

Variants of: B1
Details: with cklf5_human CMTM5, Q96DZ9

Variant | effect of a mutation on the interaction
V112M | disrupting interaction strength

Variants of: B2
Details: with spry7_human SPRYD7, Q5W111

Variant | effect of a mutation on the interaction
A127S | with no effect

Variants of: B3
Details: with tri27_human TRIM27, P14373

Variant | effect of a mutation on the interaction
C381Y | disrupting interaction strength

Variants of: B4
Details: with snf8_human SNF8, Q96H20

Variant | effect of a mutation on the interaction
A127S | with no effect

Variants of: B5
Details: with at2l2_human PHYKPL

Variant | effect of a mutation on the interaction
P669A | with no effect

Variants of: B5
Details: with ip6k2_human IP6K2, Q9UHH9
Chain of ip6k2_human IP6K2, Q9UHH9 (Q9UHH9 whole entry): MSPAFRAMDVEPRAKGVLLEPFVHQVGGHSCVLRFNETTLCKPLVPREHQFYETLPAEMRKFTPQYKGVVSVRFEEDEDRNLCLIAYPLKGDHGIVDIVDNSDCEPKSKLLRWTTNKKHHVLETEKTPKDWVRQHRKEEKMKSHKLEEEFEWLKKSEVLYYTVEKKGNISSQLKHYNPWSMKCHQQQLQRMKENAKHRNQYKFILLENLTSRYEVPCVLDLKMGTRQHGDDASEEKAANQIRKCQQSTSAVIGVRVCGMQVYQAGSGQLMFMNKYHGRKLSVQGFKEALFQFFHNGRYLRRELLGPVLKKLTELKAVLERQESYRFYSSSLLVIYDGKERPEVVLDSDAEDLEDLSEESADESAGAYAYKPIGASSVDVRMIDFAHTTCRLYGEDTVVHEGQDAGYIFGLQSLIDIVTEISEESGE

Variant | effect of a mutation on the interaction
P669A | with no effect

Variants of: B5
Details: with atpb_human ATP5F1B

Variant | effect of a mutation on the interaction
P669A | with no effect

Variants of: B5
Details: with optn_human OPTN

Variant | effect of a mutation on the interaction
P669A | with no effect

Variants of: B5
Details: with tbb5_human TUBB

Variant | effect of a mutation on the interaction
P669A | with no effect

Variants of: B5
Details: with mk09_human MAPK9, P45984

Variant | effect of a mutation on the interaction
P669A | with no effect

Variants of: B5
Details: with ptcd3_human PTCD3, Q96EY7

Variant | effect of a mutation on the interaction
P669A | with no effect

Variants of: B5
Details: with lrc8e_human LRRC8E

Variant | effect of a mutation on the interaction
P669A | with no effect
